Assay [1] addresses T1, SARS-CoV-2 S1 (SARS-CoV-2, UniProt P0DTC2 16-685).
T1 construct: range 16-685
Description: SPR.

Assay [2] has as its target T1, SARS-CoV-2 S1. Description: SPR. The source holds these as a separate data set. (In general: SPR reads the build-up and loss of mass on a sensor chip optically.)
For assay [3], the target named is T2, S1 domain of SARS-CoV S protein (SARS-CoV, UniProt P59594 14-667).
T2 construct: domain: S1
Description: SPR.

Assay [4] concerns the target T2, S1 domain of SARS-CoV S protein. Description: cross-binding assay on the S1 domain of SARS-CoV S protein.

Experimental findings from US20230002478A1 (TWIST BIOSCIENCE, published 2023) are described below.

By Kd is commonly meant the free concentration of one partner at which half of the binding sites on the other are occupied at equilibrium, for simple one-to-one binding.

Where two headings read alike, the source gives them in different places.

B1: 6-63 (Fc fusion)
chain: EVQLVESGGGLVQPGGSLRLSCAASGQTFNMGWFRQAPGKEREFVAAIGSGGSTSYADSVKGRFTISADNSKNTAYLQMNSLKPEDTAVYYCWRLGNDYFDYWGQGTLVTVSS
With B1, the results for the Kd in assay [1] and in assay [2] were 46 nM and 65 nM, respectively. Also, the binding result in assay [3] was “no binding”.

B2: 2-2 (antibody, V domains shown)
VH: EVQLLESGGGLVQPGGSLRLSCAASGFTFSRHAMNWVRQAPGKGLEWVSGISGSGDETYYADSVKGRFTISRDNSKNTLYLQMNSLRAEDTAVYYCARDLPASYYDSSGYYWHNGMDVWGQGTLVTVSS
VL: DIQMTQSPSSLSASVGDRVTITCRASQTINTYLNWYQQKPGKAPKLLIYSASTLQSGVPSRFSGSGSGTDFTLTISSLQPEDFATYYCQQSYSTFTFGQGTKVEIK
Molecule B2 gave a Kd in assay [1] of 21 nM.

B3: 5-1 (Fc fusion)
chain: EVQLVESGGGLVQPGGSLRLSCAASGGTFSSIGMGWFRQAPGKEREFVAAISWDGGATAYADSVKGRFTISADNSKNTAYLQMNSLKPEDTAVYYCAKEDVGKPFDWGQGTLVTVSS
In turn, B3 displayed a Kd in assay [1] of 6.6 nM. This Kd is about 3.2-fold lower than that of the molecule before.

B4: 6-3 (Fc fusion)
chain: EVQLVESGGGLVQPGGSLRLSCAASGFTFSPSWMGWFRQAPGKEREFVATINEYGGRNYADSVKGRFTISADNSKNTAYLQMNSLKPEDTAVYYCARVDRDFDYWGQGTLVTVSS
In the case of B4, the results for the Kd in assay [1] and in assay [2] were 32 nM and 11 nM, respectively. In addition, the binding result in assay [3] is “no binding”.

B5: 6-42 (Fc fusion)
chain: EVQLVESGGGLVQPGGSLRLSCAASGDTYGSYWMGWFRQAPGKEREFVAVITSGGSTNYADSVKGRFTISADNSKNTAYLQMNSLKPEDTAVYYCTHVQNSYYYAMDVWGQGTLVTVSS
For the molecule B5, the binding result in assay [1] is “binds”.

B6: 2-5 (antibody, V domains shown)
VH: EVQLLESGGGLVQPGGSLRLSCAASGFTFSDFAMAWVRQAPGKGLEWVSAISGSGDITYYADSVKGRFTISRDNSKNTLYLQMNSLRAEDTAVYYCAREADGLHSPWHFDLWGQGTLVTVSS
VL: DIQMTQSPSSLSASVGDRVTITCRASQSIHTYLNWYQQKPGKAPKLLIYAASALASGVPSRFSGSGSGTDFTLTISSLQPEDFATYYCQQSYSAPPYTFGQGTKVEIK
Take B6: the binding result in assay [4] is given as “binds”.
